Numbered stars: 1 amine (or outer) side, 2 acyl side, 3 side chain; on linkers, the order of the positions; unused ones are H or OH. Bridge positions count the residues as written; N and C are the ends. Ends that are not written are not given here. TBMB = c1c(C[*:1])cc(C[*:3])cc1C[*:2]

T1 sequence (P03952 20-638 limits assumed): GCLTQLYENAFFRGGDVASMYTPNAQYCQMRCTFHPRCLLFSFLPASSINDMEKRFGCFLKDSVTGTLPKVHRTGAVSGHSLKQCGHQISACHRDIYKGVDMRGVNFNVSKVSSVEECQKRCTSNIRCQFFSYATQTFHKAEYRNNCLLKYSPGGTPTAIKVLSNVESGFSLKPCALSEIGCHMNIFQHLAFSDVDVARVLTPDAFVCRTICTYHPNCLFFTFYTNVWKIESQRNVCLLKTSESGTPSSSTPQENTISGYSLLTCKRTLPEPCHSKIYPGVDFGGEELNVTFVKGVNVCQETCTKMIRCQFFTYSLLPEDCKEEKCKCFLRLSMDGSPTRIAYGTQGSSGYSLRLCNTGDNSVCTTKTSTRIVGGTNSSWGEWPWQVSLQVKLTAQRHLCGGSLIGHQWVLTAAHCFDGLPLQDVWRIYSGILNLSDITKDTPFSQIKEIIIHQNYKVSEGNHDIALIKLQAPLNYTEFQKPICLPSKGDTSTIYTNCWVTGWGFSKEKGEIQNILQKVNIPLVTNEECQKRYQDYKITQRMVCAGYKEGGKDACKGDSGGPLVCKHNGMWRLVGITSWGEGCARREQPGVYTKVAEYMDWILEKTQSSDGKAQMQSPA

One test addresses T1, human plasma Kallikrein (human, UniProt P03952 20-638).
T1 construct: also called hPK; human PK
In words: phage binding assay.
For the molecule CSWPARCVHQDMC (linker 1-7-13 via TBMB, on phage), the “BINDING ASSAY SIGNAL” value worked out at 61. Regarding CDWPARCMHQEFC (linker 1-7-13 via TBMB, on phage), the “BINDING ASSAY SIGNAL” value was found to be 63. On to CQWPARCMHQELC (linker 1-7-13 via TBMB (inferred), on phage), for which the “BINDING ASSAY SIGNAL” value worked out at 73. Regarding CSWPARCTHAEMC (linker 1-7-13 via TBMB, on phage), the “BINDING ASSAY SIGNAL” value stood at 59. For CAWPARCMHDDLC (linker 1-7-13 via TBMB, on phage), the “BINDING ASSAY SIGNAL” value amounted to 69. In the case of CQWPARCMHQDMC (linker 1-7-13 via TBMB (inferred), on phage), the “BINDING ASSAY SIGNAL” value is 75.

On to CAWPARCLHADMC (linker 1-7-13 via TBMB, on phage), for which the “BINDING ASSAY SIGNAL” value worked out at 66.

Take CTWPARCLHQHMC (linker 1-7-13 via TBMB, on phage): the “BINDING ASSAY SIGNAL” value turned out to be 61. With CSWPARCTHTELC (linker 1-7-13 via TBMB, on phage), the “BINDING ASSAY SIGNAL” value turned out to be 69. Still for that read-out and setting: under CSWPARCLHTELC (linker 1-7-13 via TBMB, on phage) stands 68.

On to CVWPARCTHQDLC (linker 1-7-13 via TBMB, on phage), for which the “BINDING ASSAY SIGNAL” value amounted to 71. In the case of CTWPARCTHTDLC (linker 1-7-13 via TBMB, on phage), the “BINDING ASSAY SIGNAL” value stood at 88. Still for that read-out and setting: under CTWPARCTHTDMC (linker 1-7-13 via TBMB, on phage) stands 67; under CSWPARCTHADLC (linker 1-7-13 via TBMB, on phage), 100; under CSWPARCTHSDLC (linker 1-7-13 via TBMB, on phage), 59. Same read-out and setting: as for CSWPARCTHSHLC (linker 1-7-13 via TBMB, on phage), the figure is 72; as for CTWPARCTHADLC (linker 1-7-13 via TBMB, on phage), 71. Regarding CSWPARCIHQDLC (linker 1-7-13 via TBMB, on phage), the “BINDING ASSAY SIGNAL” value was 68. Consider CTWPARCTHQAFC (linker 1-7-13 via TBMB, on phage), for which the “BINDING ASSAY SIGNAL” value was determined as 59. The same measure, in the same setting: under CAWPARCLHQDWC (linker 1-7-13 via TBMB, on phage) stands 63; under CTWPARCLHQDLC (linker 1-7-13 via TBMB, on phage), 73; under CAWPARCTHQTMC (linker 1-7-13 via TBMB, on phage), 61.

The target of the next test is T1, human plasma Kallikrein. Put plainly: phage binding assay. This is another data set of the same source. As for the experimental part:
Library transformant colonies, or selection output colonies, were picked and grown as individual cultures in 2TY broth containing selective antibiotic. The picked colonies were DNA-sequenced using a QIAgen PyroMark Q96 DNA sequencer to reveal the amino-acid substitution present in each clone, and were assayed for human plasma Kallikrein binding as follows. The phage-containing supernatant was harvested from the culture and phage were cyclised with tris bromomethyl benzene (TBMB) based on the methods of Heinis et al (Nature Chemical Biology vol. 5 pp 502-507 (2009)). The purified phage from this process were assayed for binding to biotinylated human plasma Kallikrein using a homogeneous plate-based binding assay; assay read-out measured on a BMG Labtech Pherastar FS plate reader. The quantitative binding data from duplicate assay samples was averaged (mean) and expressed as signal:background. […] The assay data was correlated with the peptide sequences.
Selections against human plasma Kallikrein were performed at a variety of stringencies (see Phage selections' in Methods above). All output sequences were identified and analysed for target binding (see ‘Randomisation of peptide domains—Assay of binding of individual clones’ in Methods above). Table 17 lists each unique sequence, its relative abundance in the selection output (frequency), and a rank number according to target binding strength.
CRFPFKCTHQDLC (linker 1-7-13 via TBMB (inferred), on phage): the “RANK (Kallikrein binding)” value amounted to 11. Turning to CSHPYRCTHQDLC (linker 1-7-13 via TBMB (inferred), on phage), the “RANK (Kallikrein binding)” value was 8. For CSWPSRCTHQDLC (linker 1-7-13 via TBMB, on phage), the “RANK (Kallikrein binding)” value came to 2.

CSFSYKCTHQDLC (linker 1-7-13 via TBMB (inferred), on phage): the “RANK (Kallikrein binding)” value was found to be 35.

In the case of CSWPFRCTHQDLC (linker 1-7-13 via TBMB, on phage), the “RANK (Kallikrein binding)” value stood at 14.

Consider CSWQARCTHQDLC (linker 1-7-13 via TBMB, on phage), for which the “RANK (Kallikrein binding)” value was found to be 42. With CSFMYKCTHQDLC (linker 1-7-13 via TBMB (inferred), on phage), the “RANK (Kallikrein binding)” value amounted to 37.

As for CSWHARCTHQDLC (linker 1-7-13 via TBMB, on phage), the “RANK (Kallikrein binding)” value came to 24. For CSWSYRCTHQDLC (linker 1-7-13 via TBMB, on phage), the “RANK (Kallikrein binding)” value was determined as 36. As for CSFPWRCTHQDLC (linker 1-7-13 via TBMB (inferred), on phage), the “RANK (Kallikrein binding)” value is 23.

As to CSFPYKCTHQDLC (linker 1-7-13 via TBMB (inferred), on phage), the “RANK (Kallikrein binding)” value was found to be 22. CSMPYRCTHQDLC (linker 1-7-13 via TBMB, on phage): the “RANK (Kallikrein binding)” value worked out at 31. On to CSWSARCTHQDLC (linker 1-7-13 via TBMB, on phage), for which the “RANK (Kallikrein binding)” value is 19.

For the molecule CSFPYRCTHQDLC (linker 1-7-13 via TBMB (inferred), on phage), the “RANK (Kallikrein binding)” value came out at 5. Regarding CSFLYKCTHQDLC (linker 1-7-13 via TBMB (inferred), on phage), the “RANK (Kallikrein binding)” value worked out at 29.

Regarding CSWWARCTHQDLC (linker 1-7-13 via TBMB, on phage), the “RANK (Kallikrein binding)” value turned out to be 27.

Turning to CSFPFWCTHQDLC (linker 1-7-13 via TBMB (inferred), on phage), the “RANK (Kallikrein binding)” value is 34. As for CSWAARCTHQDLC (linker 1-7-13 via TBMB, on phage), the “RANK (Kallikrein binding)” value turned out to be 7. On to CSHPFRCTHQDLC (linker 1-7-13 via TBMB (inferred), on phage), for which the “RANK (Kallikrein binding)” value was determined as 9. CSFPFKCTHQDLC (linker 1-7-13 via TBMB (inferred), on phage): the “RANK (Kallikrein binding)” value was 6. CSWPYKCTHQDLC (linker 1-7-13 via TBMB, on phage): the “RANK (Kallikrein binding)” value was found to be 28. Turning to CSFPIRCTHQDLC (linker 1-7-13 via TBMB (inferred), on phage), the “RANK (Kallikrein binding)” value worked out at 15. Turning to CSWLARCTHQDLC (linker 1-7-13 via TBMB, on phage), the “RANK (Kallikrein binding)” value was 4. As for CSLPIRCTHQDLC (linker 1-7-13 via TBMB, on phage), the “RANK (Kallikrein binding)” value was 30. For CSIPFKCTHQDLC (linker 1-7-13 via TBMB (inferred), on phage), the “RANK (Kallikrein binding)” value came to 32. As to CSWPYRCTHQDLC (linker 1-7-13 via TBMB, on phage), the “RANK (Kallikrein binding)” value came to 10.

For the origin of these results see patent US20180362585A1 (Bicycle, published 2018).
